In article PMC11077971 (mBio, 2024):

Columns and labels:
[1] = target: T1, ACC complex (biotinylated BC1 with CTβ-CTα) (Chloroflexus aurantiacus, UniProt A9WBQ8+A9WBQ9); test: HPLC and MS detection of malonyl-CoA; type: biochemical; conditions: 10 mM acetyl-CoA, 40 mM bicarbonate, 1 mM ATP, 5 mM MgCl2, pH 9.0, RT
T1 construct: gene accD; His6-tagged, E. coli BL21(DE3); with Biotin carboxylase (acetyl-CoA carboxylase, biotin carboxylase; fused BC-BCCP)

E. coli BirA = target: T2, E. coli BirA (Escherichia coli, UniProt P06709); test: HPLC-MS of biotinylated BCCP core; type: biochemical; conditions: apo-BCCP core (BC1) as acceptor protein, 10 µM biotin, 0.3 mM ATP, 5 mM MgCl2, pH 8.0, 37 °C
T2 construct: Met1-Lys321, N-terminal His6 tag (pET28a), E. coli BL21(DE3)
T2 sequence (P06709 whole entry): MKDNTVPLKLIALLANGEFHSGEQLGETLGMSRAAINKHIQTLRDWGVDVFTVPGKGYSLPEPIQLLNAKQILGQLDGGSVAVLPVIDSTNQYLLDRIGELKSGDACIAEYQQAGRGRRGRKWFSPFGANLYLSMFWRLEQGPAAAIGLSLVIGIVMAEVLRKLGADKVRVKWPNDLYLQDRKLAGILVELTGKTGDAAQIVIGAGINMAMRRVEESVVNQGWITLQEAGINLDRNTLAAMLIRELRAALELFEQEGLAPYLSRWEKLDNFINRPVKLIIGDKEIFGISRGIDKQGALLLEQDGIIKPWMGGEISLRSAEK

[2] = target: the molecule itself; test: AUC + SEC; sedimentation velocity, 42,000 rpm, 20°C, initial A280 ~0.7, Sedfit; gel filtration on a Superdex 200 column
purified protein [3] = substrate: O=C(O)CCCC[C@@H]1SC[C@@H]2NC(=O)N[C@@H]21; test: purified protein; conditions: apparent Km, free biotin as carboxyl acceptor, 40 mM bicarbonate, 2 mM ATP, 8 mM MgCl2, 100 mM Hepes pH 8.0, 25 °C
purified protein [4] = substrate: O=C(O)O; test: purified protein; conditions: apparent Km, 40 mM biotin, 2 mM ATP, 8 mM MgCl2, 100 mM Hepes pH 8.0, 25 °C
[5] = target: the molecule itself; test: crystal structure; hanging-drop vapor diffusion at 16°C; BC1 at 6.5 mg/mL, BC2 at 10 mg/mL in 20 mM Tris-HCl pH 8.0, 150 mM NaCl, 2 mM MgCl2; molecular replacement

T1 sequence (A9WBQ8 entry or part of it, one chain of several): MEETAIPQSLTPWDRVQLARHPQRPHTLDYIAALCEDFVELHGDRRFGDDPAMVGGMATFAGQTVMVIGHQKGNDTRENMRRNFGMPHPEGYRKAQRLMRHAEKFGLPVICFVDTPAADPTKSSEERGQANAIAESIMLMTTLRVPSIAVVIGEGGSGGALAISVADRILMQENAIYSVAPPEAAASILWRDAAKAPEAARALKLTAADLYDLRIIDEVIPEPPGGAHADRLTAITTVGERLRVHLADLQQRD
T1 sequence (A9WBQ9 24-305, one chain of several): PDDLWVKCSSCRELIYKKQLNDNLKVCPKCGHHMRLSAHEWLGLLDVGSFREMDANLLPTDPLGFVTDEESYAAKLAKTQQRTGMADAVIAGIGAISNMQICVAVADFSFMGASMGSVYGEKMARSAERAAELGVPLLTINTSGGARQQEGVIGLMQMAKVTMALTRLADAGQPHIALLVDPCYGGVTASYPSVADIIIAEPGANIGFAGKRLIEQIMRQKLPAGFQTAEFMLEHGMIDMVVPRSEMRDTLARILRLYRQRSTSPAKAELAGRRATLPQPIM

## CC(=O)SCCNC(=O)CCNC(=O)[C@H](O)C(C)(C)COP(=O)(O)OP(=O)(O)OC[C@H]1O[C@@H](n2cnc3c(N)ncnc32)[C@H](O)[C@@H]1OP(=O)(O)O [acetyl-CoA]
[1]
  HPLC and MS detection of malonyl-CoA: the reconstituted ACC complex is enzymatically active

## O=C(O)CCCC[C@@H]1SC[C@@H]2NC(=O)N[C@@H]21 [biotin]
E. coli BirA
  HPLC-MS of biotinylated BCCP core: BC1-BCCP domain can be biotinylated by both E. coli and C. aurantiacus BirA

B1: His6-BC1ΔBCCP (Met1-Glu452) (domain or fragment, Chloroflexus aurantiacus J-10-fl, UniProt A9W9X0 1-452, looked up)
chain: MFRTILVANRGEIALRVMRACRELGLRCVAVYSEADRDAPHVAYADDAFLIGPPSPAESYLNIDAIIRAAKATGAEAIHPGYGFLAENASFVRAVTAAGLIFIGPPAEAMERMGGKTAARREATAAGVPVVPGVLEPVTDAAEVRRLGKEFGYPIAIKAVGGGGGRGLRVVRSPEEVDEAFAAARREAEVAFKNGELYVEKYLDDPRHIEIQVLADRYGNAVALGERDCSVQRRHQKLIEECPSPALTPELRAEMGAAAVRLAKAVGYVSAGTLEFLFQDGRYYFLEMNTRIQVEHTVTEMVYGIDLVAAQIRIAQGEKLWFKQEDVVPRGHAIECRINAEDPLHNFRPALGTIGEYHEPVGFGVRVDSGVRAYYTVPSHYDSLLAKLITWGSDRQEAIARMRRALAEYRIEGVTTIIPFHQAALEHPVFTAGAATVNFIPRHPELFSRAAE
notes: BC domain of biotin carboxylase isoform BC1, Chloroflexus aurantiacus J-10-fl; also called BCCP-truncated BC1 mutant; not shown: His6, N-terminal, kept
[2]
  stoichiometry N: 2
Purified protein [3]
  Km: 17.1 ± 1.2 mM
  kcat: 15.6 s⁻¹
  kcat/Km: 920 M⁻¹ s⁻¹
Purified protein [4]
  Km: 7.4 ± 0.3 mM
  kcat: 14.3 s⁻¹
  kcat/Km: 1930 M⁻¹ s⁻¹

B2: Chloroflexus aurantiacus BC2 (His6-tagged, Met1-Val455) (enzyme, Chloroflexus aurantiacus J-10-fl, UniProt A9WKH8 1-455, looked up)
chain: MIRKVLVANRGEIAVRIIRACQELGIRTVVAYSTADRDSLAVRLADEAVCIGPPPAAKSYLNAPALISAALVSGCDAIHPGYGFLSENPYFAEMCADCKLTFIGPPPEPIRLMGDKAIGRETMRKAGVPTVPGSDGEVRSLEEAIDVARQIGYPVLLKPSGGGGGRGMRVAYDEADLQRAFPTARAEAEAAFGNGALLLEKYLTRVRHVEIQVLADQYGHAIHLGERDCSAQRRHQKIVEEAPSPAVTPELRERMGADAVRGIKSIGYVNAGTLEFLLDQDGNYYFIEMNTRIQVEHPVTEQVTGIDLVRWQLLIASGERLTLRQEDIKITRHAIECRINAEDPERDFLPASGEVEFYLPPGGPGVRVDSHLYSGYTPPGTYDSLLAKIITFGDTRDEALNRMRRALNECVITGIKTTIPFQLALIDDPEFRAGRIHTGYVAELLRQWKETLNPV
notes: biotin carboxylase isoform BC2, Chloroflexus aurantiacus J-10-fl, 455 residues; Met1-Val455 is called full-length; also called His6-BC2; biotin carboxylase isoform 2; not shown: His6, N-terminal, kept
[5]
  stoichiometry N: 2
Purified protein [3]
  Km: 14.8 ± 2.2 mM
  kcat: 16.7 s⁻¹
  kcat/Km: 1160 M⁻¹ s⁻¹
Purified protein [4]
  Km: 6.7 ± 0.9 mM
  kcat: 16.2 s⁻¹
  kcat/Km: 2380 M⁻¹ s⁻¹

B3: His6-BC1ΔBCCP^Core (Met1-Lys510) (domain or fragment, Chloroflexus aurantiacus J-10-fl, UniProt A9W9X0 1-510, looked up)
chain: MFRTILVANRGEIALRVMRACRELGLRCVAVYSEADRDAPHVAYADDAFLIGPPSPAESYLNIDAIIRAAKATGAEAIHPGYGFLAENASFVRAVTAAGLIFIGPPAEAMERMGGKTAARREATAAGVPVVPGVLEPVTDAAEVRRLGKEFGYPIAIKAVGGGGGRGLRVVRSPEEVDEAFAAARREAEVAFKNGELYVEKYLDDPRHIEIQVLADRYGNAVALGERDCSVQRRHQKLIEECPSPALTPELRAEMGAAAVRLAKAVGYVSAGTLEFLFQDGRYYFLEMNTRIQVEHTVTEMVYGIDLVAAQIRIAQGEKLWFKQEDVVPRGHAIECRINAEDPLHNFRPALGTIGEYHEPVGFGVRVDSGVRAYYTVPSHYDSLLAKLITWGSDRQEAIARMRRALAEYRIEGVTTIIPFHQAALEHPVFTAGAATVNFIPRHPELFSRAAELTPPTAASAGAEPAPEPRRFTIEVNGRRFGVAVFGDGMNATPVASPSRSAPARRAAPK
notes: biotin carboxylase isoform BC1 without the BCCP core, Chloroflexus aurantiacus J-10-fl; The cloning of this construct is not described in the methods; source: E. coli BL21(DE3), purified
[2]
  stoichiometry N: 4

B4: BC1 (Chloroflexus aurantiacus J-10-fl) (protein)
chain: MFRTILVANRGEIALRVMRACRELGLRCVAVYSEADRDAPHVAYADDAFLIGPPSPAESYLNIDAIIRAAKATGAEAIHPGYGFLAENASFVRAVTAAGLIFIGPPAEAMERMGGKTAARREATAAGVPVVPGVLEPVTDAAEVRRLGKEFGYPIAIKAVGGGGGRGLRVVRSPEEVDEAFAAARREAEVAFKNGELYVEKYLDDPRHIEIQVLADRYGNAVALGERDCSVQRRHQKLIEECPSPALTPELRAEMGAAAVRLAKAVGYVSAGTLEFLFQDGRYYFLEMNTRIQVEHTVTEMVYGIDLVAAQIRIAQGEKLWFKQEDVVPRGHAIECRINAEDPLHNFRPALGTIGEYHEPVGFGVRVDSGVRAYYTVPSHYDSLLAKLITWGSDRQEAIARMRRALAEYRIEGVTTIIPFHQAALEHPVFTAGAATVNFIPRHPELFSRAAELTPPTAASAGAEPAPEPRRFTIEVNGRRFGVAVFGDGMNATPVASPSRSAPARRAAPKKTTLAAPVDAVISPIQGRVVAVRVAHGQQVEAGQVLFIVEAMKMENEITAPHSGTIAEVRVEVGTTVEAGAMLATYQNTANNTNGK
Purified protein [3]
  Km: 11.4 ± 0.2 mM
  kcat: 19.1 s⁻¹
  kcat/Km: 1670 M⁻¹ s⁻¹
Purified protein [4]
  Km: 4.5 ± 0.1 mM
  kcat: 20.7 s⁻¹
  kcat/Km: 4560 M⁻¹ s⁻¹

B5: Chloroflexus aurantiacus BC1 (His6-tagged, Met1-Lys596), not biotinylated in vitro (enzyme, Chloroflexus aurantiacus J-10-fl, UniProt A9W9X0 1-596, looked up)
chain: B4 chain
notes: biotin carboxylase isoform BC1 with fused BC (Met1-Glu452) and BCCP (Ala459-Lys596) domains, Chloroflexus aurantiacus J-10-fl, 596 residues; the pull-down control was; also called His6-BC1; unbiotinylated BC1; source: for the pull-down passed over streptavidin agarose to remove the biotinylated fraction; not shown: His6, N-terminal, kept
[5]
  stoichiometry N: 4

B6: BC1ΔBCCP^β-hairpin (BC1 lacking Thr473-Gly486) (enzyme, Chloroflexus aurantiacus J-10-fl, UniProt A9W9X0 1-596, looked up)
chain: MFRTILVANRGEIALRVMRACRELGLRCVAVYSEADRDAPHVAYADDAFLIGPPSPAESYLNIDAIIRAAKATGAEAIHPGYGFLAENASFVRAVTAAGLIFIGPPAEAMERMGGKTAARREATAAGVPVVPGVLEPVTDAAEVRRLGKEFGYPIAIKAVGGGGGRGLRVVRSPEEVDEAFAAARREAEVAFKNGELYVEKYLDDPRHIEIQVLADRYGNAVALGERDCSVQRRHQKLIEECPSPALTPELRAEMGAAAVRLAKAVGYVSAGTLEFLFQDGRYYFLEMNTRIQVEHTVTEMVYGIDLVAAQIRIAQGEKLWFKQEDVVPRGHAIECRINAEDPLHNFRPALGTIGEYHEPVGFGVRVDSGVRAYYTVPSHYDSLLAKLITWGSDRQEAIARMRRALAEYRIEGVTTIIPFHQAALEHPVFTAGAATVNFIPRHPELFSRAAELTPPTAASAGAEPAPEPRRFGDGMNATPVASPSRSAPARRAAPKKTTLAAPVDAVISPIQGRVVAVRVAHGQQVEAGQVLFIVEAMKMENEITAPHSGTIAEVRVEVGTTVEAGAMLATYQNTANNTNGK
notes: biotin carboxylase isoform BC1, Chloroflexus aurantiacus J-10-fl, with the β-hairpin motif Thr473-Gly486 deleted; Vector pET28a-bc1Δbccp^β-hairpin; source: E. coli BL21(DE3), purified
[2]
  stoichiometry N: 2
